Experimental data from publication PMC10183829, “Shuffled ATG8 interacting motifs form an ancestral bridge between UFMylation and autophagy” (The EMBO Journal, 2023).
Where a chain is given by its changes, count along the chain named. Names and notes keep the numbering of the source.

Key:
GST-ATG8A, Q8LEM4 = target: T1, GST-ATG8A, Q8LEM4; experiment: microscopy-based protein-protein interaction assay (on-bead binding, confocal); details: chain shown with the change; 1 μM C53 protein; glutathione-sepharose beads with GST-ATG8A; parent: est. 1.0; read off a plot
T1 chain: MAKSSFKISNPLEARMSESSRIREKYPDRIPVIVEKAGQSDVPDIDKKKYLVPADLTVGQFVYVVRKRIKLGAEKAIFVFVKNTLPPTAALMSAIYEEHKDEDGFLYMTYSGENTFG

[1] = target: GST-GABARAP (human), O95166; experiment: microscopy-based on-bead protein-protein interaction assay; details: remark: other sources report otherwise
GST-GABARAP (human), O95166, sequence (O95166 whole entry): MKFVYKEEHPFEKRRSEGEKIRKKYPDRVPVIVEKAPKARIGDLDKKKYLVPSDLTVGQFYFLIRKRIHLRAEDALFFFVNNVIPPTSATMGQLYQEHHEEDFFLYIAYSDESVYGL

B1: mCh-HsC53, Q96JB5 IDWG267WDGI; IDWG292WDGI; IDWG310WDGI (protein)
chain: MEDHQHVPIDIQTSKLLDWLVDRRHCSLKWQSLVLTIREKINAAIQDMPESEEIAQLLSGSYIHYFHCLRILDLLKGTEASTKNIFGRYSSQRMKDWQEIIALYEKDNTYLVELSSLLVRNVNYEIPSLKKQIAKCQQLQQEYSRKEEECQAGAAEMREQFYHSCKQYGITGENVRGELLALVKDLPSQLAEIGAAAQQSLGEAIDVYQASVGFVCESPTEQVLPMLRFVQKRGNSTVYEWRTGTEPSVVERPHLEELPEQVAEDAWDGIDFGVEAVSEGTDSGISAEAAGWDGIIFPESDSKDPGGDGWDGIDDAVALQITVLEAGTQAPEGVARGPDALTLLEYTETRNQFLDELMELEIFLAQRAVELSEEADVLSVSQFQLAPAILQGQTKEKMVTMVSVLEDLIGKLTSLQLQHLFMILASPRYVDRVTEFLQQKLKQSQLLALKKELMVQKQQEALEEQAALEPKLDLLLEKTKELQKLIEADISKRYSGRPVNLMGTSL
**Q.** For B1, which response (normalized fluorescence) (GST-ATG8A, Q8LEM4) is on record?
**A.** 1.2

B2: mCh-HsC53^sAIM (W269A, W294A, W312A), Q96JB5 1-506 (natural protein)
chain: B1 chain with W267I, G269A, I270G, W292I, G294A, I295G, W310I, G312A, I313G
**Q.** Which percent less recruited than the wild type [1] does the source give for B2 here?
**A.** 78%
